A short description of series [1]: Peptide array membranes probed with thioflavin T (ThT). The class given is physicochemical. As for the experimental part:
The presence of amyloid folds was then assayed using the conformation-selective OC antibody, which detects oligomer and fibril assemblies produced during the protein fibrillization process and the amyloid probe thioflavin T (ThT) (Kayed, R. et al. Molecular neurodegeneration 2, 18, (2007)). […] Of these regions, peptides 2 and 41 overlap the adhesive segments in helix A and E, predicted by the ZipperDB algorithm (Goldschmidt, L., et al. Proceedings of the National Academy of Sciences of the United States of America 107, 3487-3492, (2010)), peptides 12-16 and 34 lie over the IgE-binding regions III and IV, peptide 24 contains part of the Ca^2+-binding site of domain CD, and peptide 49 corresponds to a previously described epitope groups (Perez-Gordo, M. et al. Mol Nutr Food Res 57, 1283-1290, (2013)) (Fig. 2 and Fig. 7). […] It must be noted that peptides containing the helix C sequence, which was predicted to be an adhesive segment, were not detected by either the OC or ThT binding assays.

Series [2] deals with IgE in sera from fish-allergic patients. As to the kind of experiment: Peptide array (SPOT) immunoassay, IgE binding. The arrangement: species or system human. The following applies: sera from ten fish-allergic patients (groups S-I, S-II), 1/10 dilution; 10 nmol/spot. An excerpt:
It was first characterized the sequence elements to address how amyloid formation contributes to the IgE reactivity of Gad m 1. A set of 12-mer overlapping synthetic peptides with an offset of 2 that correspond to the sequence of Gad m 1 was used in an array-based immunoassay (Fig. 6).
This peptide length and surface density (10 nmol/spot) ensures the preservation of amyloid formation (which is conventionally limited to 6 residues), and differs from previous microarrays assays using a 15-mer with an offset of 3 (Perez-Gordo, M. et al. Mol Nutr Food Res 57, 1283-1290, (2013)).
The peptide membranes were assayed using the sera from ten patients who are allergic to fish (Figs. 1, 2). The IgE binding intensity was variable among the tested sera; however, it was possible to identify four major binding regions (I-IV) and two major groups of sera (S-I: S2, S3, S4, S7 and S8; S-II: S1, S5, S6, S12 and S13). […] Of these four regions, region I overlaps the sequence predicted as the cross-β sheet forming (adhesive) segment in helix A, whereas regions III and IV overlap the immunologically reactive sites located on the junctions between the AB and CD domains (residues 33-44) and between the CD and EF domains (residues 65-74) (Martinez, J. et al. Swiss Med Wkly 145, (2015)). Nevertheless, the reactivity of the Ca^2+-binding loop of the EF domain (residues 88-96) and of the C-terminal (residues 95-109) regions was not detected by these sera, as probed by both IgE and IgG4 binding (Fig. 1d) (Perez-Gordo, M. et al. Int Arch Allergy Imm 157, 31-40, (2012)). It merits comment that IgG4 reactivity, which is considered as a protective response in allergy, is largely detected in region IV for both sera groups (Perez-Gordo, M. et al. Int Arch Allergy Imm 157, 31-40, (2012)).
Peptide arrays (SPOT). Dodecapeptides spanning the whole sequence of Gad m 1, with an overlap of ten residues, were solid-phase synthesized and immobilized (≈10 nmol per spot) on an Amino-PEG500-UC540 sheet at the National Centre for Biotechnology (CNB-CSIC, Madrid). Before use, the membranes were rinsed with ethanol, washed three times with TBS (25 mM Tris-HCl, pH 7.5, containing 137 mM NaCl and 2.7 mM KCI), and incubated in TBS containing 1% BSA (w/v) and 2 mM EDTA for 1 h. The membranes were then probed for 2 h with sera from patients who are allergic to fish (1/10 dilution) and the anti-amyloid fibril OC antibody (AB2286 Merck Millipore, 1/2000 dilution), prepared in TBST (TBS containing 0.05% Tween-20) supplemented with 0.5% BSA (w/v) or with rGad m 1 chains (2.5 µM) in TBS. After extensive washes with TBST, a 30 min incubation with either horseradish peroxidase-labeled anti-human IgE (Abcam ab99806, 1/2000 dilution), anti-human IgG4 (Abcam ab99823, 1/4000 dilution), goat anti-rabbit IgG (Sigma, 1/5000 dilution) or anti-6X His tag® antibody (Abcam ab18184, dilution 1/1000) was performed. The signal was developed with the ECL-Western-blotting reagent (Bio-Rad) and detected with a ChemiDoc XRS instrument (Martinez, J. et al. Swiss Med Wkly 145, (2015)). When required, the membranes were regenerated by sequential incubation with TBS containing 8M urea, 1% SDS and 0.5% β-mercaptoethanol for 30 min at 55 °C and three times with acetic acid/ethanol/Milli-Q water (10:50:40). Regions were considered major allergenic epitopes when at least two overlapping peptides were involved. […]

Series [3] addresses T1, Gad m 1 peptide 13 (12-mer overlapping synthetic peptide) (Atlantic cod).
T1 construct: Immobilized on the SPOT membrane, about 10 nmol per spot
T1 peptide: FDHKAFFTKVGL
Nature of the series: SPOT peptide array incubated with rGad m 1 chains (2.5 µM), anti-6XHis detection.

Series [4] concerns the target T2, Gad m 1 peptide 14 (12-mer overlapping synthetic peptide) (Atlantic cod).
T2 construct: Immobilized on the SPOT membrane, about 10 nmol per spot
T2 peptide: HKAFFTKVGLAA
Described as above.

Series [5] addresses T3, Gad m 1 peptide 12 (12-mer overlapping synthetic peptide) (Atlantic cod).
T3 construct: Immobilized on the SPOT membrane, about 10 nmol per spot
T3 peptide: GSFDHKAFFTKV
The description is as above.

Series [6] deals with T4, Gad m 1 peptide 15 (12-mer overlapping synthetic peptide) (Atlantic cod).
T4 construct: Immobilized on the SPOT membrane, about 10 nmol per spot
T4 peptide: AFFTKVGLAAKS
Described as above.

On to “12: 12-mer overlapping synthetic peptide of the Gad m 1 sequence, SEQ ID NO: 12 (GSFDHKAFFTKV) [compound 12]”, for which, in series [1], the ThT fluorescence emission result is recorded as “increased fluorescence emission”.

Turning to “7: 12-mer overlapping synthetic peptide of the Gad m 1 sequence, SEQ ID NO: 7 (TAALAACKAEGS) [compound 7]”, the IgE binding entry in series [2] is on record as “only recognized by the sera group S-II”.

For “6: 12-mer overlapping synthetic peptide of the Gad m 1 sequence, SEQ ID NO: 6 (DITAALAACKAE) [compound 6]”, in series [2], the IgE binding result is given as “only recognized by the sera group S-II”.

Turning to “19: 12-mer overlapping synthetic peptide of the Gad m 1 sequence, SEQ ID NO: 19 (AAKSSADIKKVF) [compound 19]”, the IgE binding entry in series [2] was “variable recognition by the distinct sera”.

Regarding “1: 12-mer overlapping synthetic peptide of the Gad m 1 sequence, SEQ ID NO: 1 (MAFAGILNDADI) [compound 1]”, the IgE binding entry in series [2] is “only recognized by the sera group S-II”.

Regarding “18: 12-mer overlapping synthetic peptide of the Gad m 1 sequence, SEQ ID NO: 18 (GLAAKSSADIKK) [compound 18]”, the IgE binding entry in series [2] was “variable recognition by the distinct sera”.

B1: rGad m 1 wt, amyloid fibrils (formed in 5 mM EDTA) (other)
chain: AFAGILNDADITAALAACKAEGSFDHKAFFTKVGLAAKSSADIKKVFEIIDQDKSDFVEEDELKLFLQNFSAGARALSDAETKVFLKAGDSDGDGKIGVDEFGAMIKA
notes: Same chain as the wt monomer, in the amyloid state; also called wt-F; rGad m 1 amyloids; not shown: N-terminal histidine tag of the pET15b construct
Take B1: the binding result in series [3], in series [4], in series [5] and in series [6] was “binds” throughout.

Source of the values: patent EP3290438A1, “FOOD ALLERGEN EXTRACTS AND METHODS OF PRODUCING AND USING THE SAME” (CONSEJO SUPERIOR DE INVESTIGACIONES CIENTIFICAS, priority 2016, dated 2018).
